Experiment: yeast display, Sf9 membrane polyspecificity reagent, FACS + sequencing; frameworks hold sequencing errors
How it was run: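 In a synthetic yeast display library (Saccharomyces cerevisiae BJ5465), nanobody expression was induced with galactose for 36–48 hours. FACS gates were set low and high (top ~1%) using anti-HA fluorescence for expression and streptavidin fluorescence for binding of the Sf9 membrane reagent. Each polyreactivity label is drawn from the gate of origin.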

| Sequence | polyreactivity (PSR sort gate) |
| --- | --- |
| QVQLVESGGGLVQAGGSLRLSCAASGITFYDNAMGWYRQAPGKERELVAGISYDGDSTYADSVKGRFTISRDNAKNTVYLQMNSLKPEDTAVYYCAALGPYDWLWAGDYWGQGTQVTVSS | low polyreactivity |
| QVQLVESGGVLVQAGGSLRLSCAASGFIFPYYAMGWYRPAPGKETELVAAIDQSGDSTYYADSVKGRFTISRDNAKNTVYLQMNSLKPEDTAVFYCAARAVGGVRGYRYDYWGQGTQVTVSS | high polyreactivity |
| QVQLVESGGGLVQAGCSLRLSCAASGSSFYTYTMGWYRQAPGKERELVAAITWSGGSTYYADSVKGRFTISRDNAKNTVYLQMNSLKPEDTAVYFCNADQDYQAARPSGMDYWGQGTQVTVSS | low polyreactivity |
| QVQLVESGGCLVQAGGSLRLSCAASGFIISSYVMGWYSQEPGKERELVAAITSGTSTYYADSVKGRFTFSRDNAKNTVYLQMNSLKPEDTAVYYCTADSYHTYYYWYDYWGQGTQVTVSS | low polyreactivity |
| QVQLQESGGGLVQAGGGLRLSCAASGSILNQAPMGWYRQAPGKERELVATINEGSITNYADSVKGRFTISRDNAKNTVYLQMNSLKPEDTAVYYCAVNKYIGLDYHYWGQGTQVTVSS | low polyreactivity |
| QVQLVESGGGLVQAGGSLRLSCAASVSIFEWYAMGRYRQAHGKERELVAAINSGGSTYYADSVKGRFTISRDNAKNTVYLQMNSLKPEDTAVYYCAAGTQAHAYVVRPIEMDYWGQGTQVTVSS | low polyreactivity |
| QVQLVESGGGLVQAGGSLRLSCAASGSIFHIYAMGWYRQAPGKERELVAAISSGGRTNYADSVKGRFTISRDNAKNTVYLQMNSLKPEDTEVYYCAADWIYLPTRNYRVRVDYWGQGTQVTVSS | high polyreactivity |
| QVQLVESGGGLVQAGGSLRLSCAASGLTFVYYAMGWYRQAPGKERELVAAISGVGSTHYADSVKGRFTISRDNANNTVYLQMNSLKPEDTAVYYCNADYAYFWGWYGDWGQGTQVTVSS | low polyreactivity |
| QVQHVETGGGLVQAGGSLRLSCDASGRIFYNYVMGWYRQAPGKERELVAAISFSSGNTYYADSVKGRFTISRDNAKNSVYLQMNSLTPEDTAVYYCNADIYTWFQIGGYQYDYWGQGTQVTVSS | low polyreactivity |
| QVQLVESGGGLVQAGGSLRLSCAASGSTFVWKAMGWYRQAPGKERELVAAISSSGGITYYADSVKGRFTISRDNAKNPVYLQMNSLKPEDTAVYYCAAERDDDWVNYWGQGTQVTVSS | low polyreactivity |
| QVQLVESGGGLVQAGGSLRLSCAASGRTFAYYAMGWYRQAPGKERELVAAIRRSGRTNYADSVKGRFTISRDNAKNTVYLQMNSLKQEDTAVYYCAADYWQGDLRYDYWGQGTQVTVSS | low polyreactivity |
| QVQLVESGGGVVQAGGSLRLSCAASGLIFRRYAMGWYRQAPGIERELVAAISGNGGSTYYADSVKGRFTISRDKAKNTVYVQMNCLKPEDTAVYYCAARSLGIYNYWGQGTQVTVSS | high polyreactivity |
| QVQLVESGGGLVQAGGSLRLSCAASGRTFPYYAMGWYRQAPGKERELVAAITWSGGTTYYADSVKGRFTISRDNAKNTVYLQMNSLKPEDTAVYYCAADFYGPDGYDYWGQGTQVTVSS | low polyreactivity |
| QVQLVESGAGLVQAGGSLRLTCAASGRIFVINAMGWLRQAPGKETELVAPITGGGSTNYADSVKGRFTISRDNAKNTVYLQMNSLKPEDTAVYYCAADYRPVRRFYYSRYDYWGQGTQVTVSS | low polyreactivity |
| QVQLVESGGGLVQAGGSLRLSCAASGFIFGYNAMGWYRKAPGTERELVAAITWIGGTTYYADSVKGRFTISRDNAKNTVYLQMNSLKPEDTAVYYCARQRSYGRSSYSYGYDYWGQGTQVTVSS | high polyreactivity |
| QVQLVESGGGLVQAGGSLRLSCAASGSTFSFNAMGWYRQAPGKERELVAAISYSDSTTYYADSVKGRFTISRDNAKNTVYLQMNSLKPEDTAVYYCAAETGPYYRFGGDYWGQGTQVTVSS | high polyreactivity |
| QVQLVESVGGLFHEGGSLRLSSAASGFIFWANAMGCYRQAPGKERELVAAIRNSGGRTYYADSVKGRFTISRDKAKNTVYLQMNSLKPEDTAVYFCATDTGYPYSYDLFDSYYWGQGTQLTVSS | low polyreactivity |
| QVQLVESGGGLVQAGGSLRLSCAASGITFWHNTMGWYRQAPGKERELVAAISWTGGRTYYADSVKGRFTISRDNAKNTVNFQMNSLNPEDTAVNYCAADFSWTPSGNYDSWGQGTQVTVSS | low polyreactivity |
| QVQLEESGGGLVQAGGRLRLSCAASGSTYSEYAMGWSRKAPGKQRELVAAINWSGGSTYYADSVKGRFTISRDNAKNTVYLQMNSLKPEDTAVYYCNKVFRHHWYPAYNSWGQGTQVTVSS | low polyreactivity |
| QVQLVESGGGLVQAGGSLRLSCAASGFTLVYYVMGWYRQAPGKERELVARISRGGSTNYADSVKGRFTISRDNAKNTVYLQMNSLKPEDTAVYYCAARRTSWQGFNYWGQGTQVTVAS | high polyreactivity |
| QVQLVESGGGLVQAGGSLRLSCAASGSTFVWNAMGGYRQAPGKERELVAAITNDGRTNYADSVKGRFTISRDNAKNTVYLQMNSRKPEDTAVYYCNADGYNSYWWNYYWGQGTQVTVSS | low polyreactivity |
| QVQLVESGGGLVQAGGSLRLSCASSGRTFRYYTMGWYRQAPGKEREFVAAISSTGGTYYADSVKGRFTISRDNAKNTVYFQMNSLIPVDTAVYYCAATFIKVVVNVQLYDYDYWGQGTQVTVSS | low polyreactivity |

| Sequence | polyreactivity (PSR sort gate) |
| --- | --- |
| QVQLVESGGGLVQAGGSLRLSCAASGLIFVGYAMGWYRQAPGKERELVAAITSGGSTKYADSVKGRFTISRDNAKNTVYLQMNSLKPEDTAVYYCAASGWRNWWSARNYYWGQGTQVTVSS | low polyreactivity |
| QVQLVESGGGLVQAGGSLRLSCAASGITFAFYDMGWYRQAPGKERELVAAISYSGGGTYYADSVKGRFTISRDNAKNTVYLQMNSLKPEDTAVYYCAADPKTHPLFGEDYWGQGTQVTVSS | low polyreactivity |
| QVQLVESGGGLVQAGGSLRLSCAASGFIFTTYDMGWYRQAPGKEMELVAAITGSGGRTYYADSVKGRFTISRDNAKNTVYLQMNSLKPEDTAVYYCAARWGNVRFRYGYWGQGTQVTVSS | high polyreactivity |
| QVQLVESGGGLVQAGGSLRLSCAASGSIFYYYAMGWYRQAPGKERELVAAISYGGGSTYYADSVKGRFTISRDNAKNTVYLQMNSLKPEDTAVYYCAVQEVVGWYLYDYWGQGTQVTVSS | high polyreactivity |
| QVQLVESGGGLVQAGGSLRLSCAASGRTFAGNAMGWYRQAPGKERELVAGISSGGSTNNADSVKGRFTSTRDNAKNTVYLQMNSLNPEDTAVYYCAKRYFRKGYPLFQYAYGYWGQGTQVTLSS | high polyreactivity |
| QVQLVESGGGLVQAGGSLRLSCAASGSIIYRYAMGWYRQAPGKEMELVAAISTAGSTNYADSVKGRFTISRDNAKNTVYLLMNCLKPEDTAVYYCAAKSYRGRTQRSYGYWGQGTQVSVSS | low polyreactivity |
| QVQLVESGGGLVQAGGSLRLSFAASGFTFRNYAKGWYRQAPGKERELVATISRSGCSTYYADSVKGRFTISRDNAKNTVYLQMNSLKPEDTAVYYCAAKTILWKYYPYYYVTYDYWGQGTQVTVSS | high polyreactivity |
| QVQLVESGGGLDQAGASLRLSCPASGRTFNANVMGWYRQAPGKERELVAAISTGGSTNYADSVKGRFTISRDNAKNTVYLQMNSLKPEDTAVYYCAAAIRVPQGGYYYWGQGTQVTVSS | low polyreactivity |
| QVQLVESGGGLVQAGGSLRLSCAASGNIFGAYAMGWYRQAPGKERELVATINWSGTRTYADSVKGRFTISRDNAKNTVYLQMNSLKPEDTAVYYCATKIAGRYRTRYYWGQGTQVTVSS | high polyreactivity |
| QVQLVESGGGLVQAGGSLRLSCAASGRIFYQYVMGWYRQAPGKDRELVAAISRRGGSTYYADSVKGRFTISRDNAKNTVYLQMNSLKPEDTAVYYCAARRRYRRHRYDYWGQGTQVTVSS | high polyreactivity |
| QVQLVESGGGLVQAGGSLRLSCDASGRICGTNAMGWYRQAPGKERELVADITSGGSTNYADSVKGRFTISRDYAKNTVYVQMNSLKPEDTAVYYCAADVIGDLRWYRDEYWGQGTQVTVSS | low polyreactivity |
| QVQLVESGGGLVQAGGSLRLSCAASGRTFYNYAMGWYRQAPGKERELVATINRGVSTNYADSVKGRFTISRDNEKNTVYLQMNSLKPEDTAVYYCAARKRPPYGYGYWGQGTQVTVSS | high polyreactivity |
| QVQLVESGGGLVQAGGSLRLSCAASGSTLLVYAMGWYRQAPGKERELVAAITYSGTTTYYADSVKGRFTISRDNAKNTVYLQMNSLKPEDTAVYYCAKYPGYFQGNYWGQGTQVTVSS | low polyreactivity |
| QVQLVESGGGLVQAGGSLRLSCAASGRIGYNVMGWYRPAPGKERELVADISRGGGRTYYADSVKGRFTISRDNAKNTVYLQMNSLKPEDTAVYYCNAVTYYVDGGWYDYDYWGQGTQVTVSS | high polyreactivity |
| QVQLQERGGALVQAGGSLRLICAATGNITVTGFMGWYRQSPGKERELVASIAIGGTTYYADSVKGRFSISRDNAKNTVYLQRNSLKQEDTAVSYGAARYLYYAYSYWGQGTQVTVSS | low polyreactivity |
| QVQLQERGGGLVQAGGDLRLSCAASGNIFRDYIMGWYRQAPGKEREFVAGIDRGANTNYADSVKGRFTISRDNAKNTVYLQMNSLKPEDTAVYYCAVHTAIVPDFIYWGQGTQVTVSS | low polyreactivity |
| QVQVVESGGGLDQAGGSLRLSCAASGRIFFYYGMGWYRQAPGTERELVASISRGGSTTYADSVKGRFTISRDNAMKTVYLQMNSLKPEDSAVYYCARRYTQIYSSNYGYWGQGTEVTVSS | high polyreactivity |
| QVQLVESGGGLVQAGGSLRLSCAASGSTFPLYAMGWYRQAPGKERELVAAITGGGGRTYYADSVKGRFTISRDNAKNTVYLQMNSLKPEDTAVYYCATDSFGYDWYWGQGTQVTVSS | low polyreactivity |
| QVQLVESGGGLVQAGGSLRLNCAASGSTFPKYAMGWYRQAPGKERELVAAISWSGDSTYYADSVKGRFTISRDNAKNSVYLKMNRLKPEDTAFYYCAAYNFIHAGPWVYEYWGQCTQVTVSS | low polyreactivity |
| QVQLVESGGGLVQAGGSLRLSCAASGSIFTWNGMGWYRQAPGKERELVAAISNGASTNYADSVKGRFTISRDNAKNTVYLQMNSLYPEDTAVYYCAAKSTGRYDYWGQGTQVTVSS | low polyreactivity |
| QVQLVESGGGLVQSGGSLRLSCAASGRIFHYNAMGWYRQAPGKERELVAVITTIGGDTYYADSVKGRFTISRDNAKNTVYLQMNSLKPEDTAVYYCARDRYDNPYDQDLDYWGQGTQVTVSS | low polyreactivity |

Source: the nanobody polyreactivity screen of Harvey et al. (2022)
